Patent US20260234236A1 (INTERVET, published 2026)

T1: Recombinant canine IL-4 (R&D Systems, Catalog: 752-CL/CF) (canine, UniProt O77762 25-132)
T1 sequence (looked up): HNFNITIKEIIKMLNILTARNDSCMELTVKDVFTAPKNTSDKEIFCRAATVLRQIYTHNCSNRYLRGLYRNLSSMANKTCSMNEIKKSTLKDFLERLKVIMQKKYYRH

T2: Canine IL-4 with C-terminal Avi-HIS tag (canine, biotin label when loaded on SA biosensors (Example 4); site not stated)
T2 construct: also called cIL-4; biotinylated avitag-cIL-4
T2 chain: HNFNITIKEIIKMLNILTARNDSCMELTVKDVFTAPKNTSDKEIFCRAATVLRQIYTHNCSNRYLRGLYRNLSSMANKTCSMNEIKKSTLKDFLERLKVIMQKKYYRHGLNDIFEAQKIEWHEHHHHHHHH

T3: Canine IL-13 with C-terminal Avi-HIS tag (canine, biotin label when loaded on SA biosensors (Example 4); site not stated)
T3 construct: also called cIL-13; biotinylated avitag-cIL13
T3 chain: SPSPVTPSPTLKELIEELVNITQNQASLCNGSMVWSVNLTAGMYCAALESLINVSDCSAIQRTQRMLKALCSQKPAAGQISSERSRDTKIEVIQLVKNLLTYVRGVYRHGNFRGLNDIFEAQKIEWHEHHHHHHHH


Columns and labels:
[1] = molecular target: T1, Recombinant canine IL-4 (R&D Systems, …); assay: cell-based or functional assay
[2] = molecular target: T2, Canine IL-4 with C-terminal Avi-HIS tag; assay: BLI (OCTET HTX); biotin-mAb on SA biosensors, cIL-4 in solution; 1:1 model
Procedure: Selected scFv specific to cIL-4 or cIL-13 were converted into full length canine IgG mAbs and tested for binding by OCTET. All kinetics measurements were performed by OCTET HTX using SA biosensors and Data Acquisition 12.0 software. First, each biotin-labeled full-length anti-canine IL-4 or anti-canine IL-13 mAb, at a concentration of 5 μg/mL, were loaded onto the pre-rehydrated SA biosensors until binding signal change ascended to a […] threshold for all channels from the step start or for a maximum of 1200s to insure equal loading density. Second, the biosensors were placed into OCTET Kinetics Buffer (PBS+0.02% Tween20, 0.1% BSA) for the blocking phase for 60s. Third, for the association phase, full-length anti-canine IL-4 mAb or anti-canine IL-13 mAb loaded biosensors were placed into 2-fold serial dilutions from 1000 nM down to 15.6 nM of cIL-4 or cIL-13, respectively, in OCTET Kinetics Buffer for 60s. The last well was buffer alone and that sensor was used for reference sensor subtraction. Finally, the biosensors were placed into OCTET Kinetics Buffer for the dissociation phase for 180s. Analysis was performed using Data Analysis 12.0 software and curves were fitted using a 1:1 binding model.

[3] = molecular target: T3, Canine IL-13 with C-terminal Avi-HIS tag; assay: BLI (OCTET HTX); biotin-cIL-13 on SA biosensors, scFv in solution; 1:1 model
Procedure: The in vitro binding of anti-canine IL-4 scFv and IL-13 scFv to canine IL-4 and canine IL-13, respectively, was determined by OCTET HTX using SA biosensors and Data Acquisition 12.0 software. First, biotin-labeled antigen (cIL-4 or cIL-13) was loaded onto the pre-rehydrated SA biosensors for 60 seconds (60s) at a concentration of 5 μg/mL. Second, the biosensors were placed into the OCTET Kinetics Buffer (PBS+0.02% Tween20, 0.1% BSA) for the blocking phase for 120s. Third, for the association phase, cIL-4 or cIL-13 antigen loaded biosensors were placed into 2-fold serial dilutions from 500 nM down to 7.8 nM of anti-cIL-4 or anti-cIL-13 scFvs, respectively, in OCTET Kinetics Buffer for 60s. The last well was buffer alone and that sensor was used for reference sensor subtraction. Finally, the biosensors were placed into OCTET Kinetics Buffer for the dissociation phase for 300s. The analysis was performed using Data Analysis 12.0 software and curves were fitted using a 1:1 binding model.

Row | Binder | IL-4 IC50 (nM); inhibition of canine IL-4 mediated STAT6 phosphorylation in DH82 cells [1] [nM] | Kd [2] [nM] | koff [2] [s⁻¹] | kon [2] [M⁻¹ s⁻¹] | Kd [3] [nM] | koff [3] [s⁻¹] | kon [3] [M⁻¹ s⁻¹]
1 | IL4-P3-1D7VH-cIgGB/IL4-P3-1D7VL-cCL (antibody, V domains shown, Full-length canine IgG-B; also called IL4-P3-1D7VH-cIgGB/IL4-P3-D7VL-cCL) VH: EVQLVQSGGDLVKPGGSLRLSCVASGFAFNGYDMDWVRLAPGKGLQWLSEISSSGSPTYYADAVEGRFTISRDNAKNTLYLQMDSLRAEDTAVYYCARAGEYTYGYEGYYFDYWGQGTLVTVSS VL: QSMLTQPASVSGSLGQRVAISCSGSTNNIGIFGATWYQHLPGKAPKFLLYSDGNRPSGVPDRFSGSDSGNSVTLMITALQAEDEADYYCQSFDTTLGAYVFGSGTQLTILG | 37.6 | 2.01 | 0.00226 | 1.12e+06 |  |  | 
2 | IL4-P4A-1A4VH-cIgGB/IL4-P4A-1A4VL-cCL (antibody, V domains shown) VH: EVQLVESGGDLVKPGGSLRLSCVASGFNFSRYSMSWVRQAPEKGLQLVAAVNSGGSRTWYADAVQGRFTVSRDNAKNTLFLEMSSLKLEDTAMYYCAKDLWSTTIAEYDYWGQGTLVTVSS VL: SYVLSQPPSVSVTPSETAHITCGGNNIGSKYVQWIRQSAGQAPVTIIYGNTNRPTGIPERFSGANSGNTATLTISGVLAEDEADYYCQVGDTDTTVFGGGTHLTVL | 4.24 |  |  |  |  |  | 
3 | IL4-P3-1A6VH-cIgGB/IL4-P3-1A6VL-cCL (antibody, V domains shown) VH: EVPLVESGGDLVKPGGSLRLSCVASGFTFHNYDLSWIRQLPGGGLQWVADIDKSGLTFYADAVKGRFTISRDNAKNTLYLQMNSLRAEDTAVYYCATWPLGSWYTETFEYWGQGTLVTVSS VL: QPVLTQPPSVSAALGQRVTISCNTNIGSPYDVQWYQQLPGKSPKTIIYGNSNRPSGVPVRFSGSKSGSTATLTIAGIQAEDEADYYCQSYDDNVDGYVFGSGTQLTVLG | 0.56 |  |  |  |  |  | 
4 | IL4-P4A-1A10VH-cIgGB/IL4-P4-1A10VL-cCL (antibody, V domains shown, also called IL4-P4-1A10VH-cIgGB/IL4-P4-1A10VL-cCL) VH: EVQLVESGGDLVKPGGSLRLSCVASGFTFSDYDMTWVRQAPGKGLQWVADINNGGSSTTYADAVKGRFTISRDNAKNTLYLQMNSLRAEDTAMYYCAKEGDNTWLSFDSWGQGTLVTVSS VL: QSVLNQLPSVSGSLGQKVTIRCSGNTDNIGMVGAAWYRQVPGEAPKLLLYSDGNRPSGVPDRFSGSDSGRSATLTITGLQPEDEADYYCQSLDPTVPGNYLFGSGTQLTILG | 3.15 | 0.846 | 0.00105 | 1.24e+06 |  |  | 
5 | IL4-P3-1C4VH-cIgGB/IL4-P3-1C4VL-cCL (antibody, V domains shown, Full-length canine IgG-B; also called IL4 P3-1 C4 5LC) VH: EVPLVESGGDLVKPGGSLRISCVASGITFNNDDMGWVRQAPGKGLQWLAEISSSGTSTYYADAVKGRFTISRDNAKNTVYLQMNSLKAEDTGVYYCVGEDGYMALGFWGQGTLVTVSS VL: QAVLNQPASVSGSLGQRVTISCSGSTNNIGVVGASWYQQFPGKAPKLLVYSDGDRPSGVPDRFSGSNSGYSDTLTITGLQAEDEADYYCQSFDTTLNAYVFGSGTQLTVLG | 5.41 | 10.5 | 0.0189 | 1.8e+06 |  |  | 
6 | IL4-P3-1B9VH-cIgGB/IL4-P3-1B9VL-cCL (antibody, V domains shown, Full-length canine IgG-B) VH: ELQLVELGGDLVKPGGSLRLSCVASGFTFSSYGMSWVRQSPGKGLQWVADISSSGSTYYADAVKGRFTISRDNAKSTLYLQMNSLRAEDTAVYYCAKAGYGSYYDFGMDYWGHGTSVFVSS VL: QAVLTQPASVSAALGQRVTISCTGTATNVGGGYDVQWYQQFPGRPPKTIIYGNYNRPSGVPDRFSASTSGTTATLTITGIQVADEADYYCQSFDTTFNGHVFGAGTQLTILG | 3.77 | 0.0635 | 2.11e-05 | 212000 |  |  | 
7 | IL4-P4-1G3VH-cIgGB/IL4-P4-1G3VL-cCL (antibody, V domains shown, Full-length canine IgG-B) VH: EVQLVESGGDLVKPGGSLRLSCVASGFTFSSYDMDWVRQAPGKGLEWLSEISTNGDRTHYADAVKGRFAISRDNAKNTVYLQMNSLRAEDTAIYYCVRDGYEYLAFDYWGQGTLVTVSS VL: QSVLNQLPSLSMNMGETATFTCEGDNIGHKYVNWYQQKPGQAPVLTIYEDNKRPSGIPERFSGSNSGNTATLTISGARAEDEADYYCESEVSTGIVFGGGTHLTVLG | 8.31 | 1.51 | 0.00243 | 1.61e+06 |  |  | 
8 | IL4-P3-1B10VH-cIgGB/IL4-P3-1B10VL-cCL (antibody, V domains shown) VH: EVQLVESGGDLVKPGGSLRLSCVASGFTFSNYDMSWVRQAPGKGLQWVSTISYDGNNTYYSDAVKGRFTISRDNARNTLYLQMNSLRAEDTAVYYCAKEFDIPWDNFDYWGQGTLVTVSS VL: QSVLTQPTSVSAALGQRVTISCTGSNANIGSVYDVQWYQQLPGKSPKTIIYGNTHRPSGVPVRFSGSKSGSTATLTITGIQAEDEADYYCQSYDATLHYVFGSGTQLTVLG | 87.8 |  |  |  |  |  | 
9 | IL4-P3-1B10VHm-cIgGB/IL4-P3-1B10VL-cCL (antibody, V domains shown, Full-length canine IgG-B; also called IL4 P3-1 B10m) VH: EVQLVESGGDLVKPGGSLRLSCVASGFTFSNYDMSWVRQAPGKGLQWVSTISYDGQNTYYSDAVKGRFTISRDNARNTLYLQMNSLRAEDTAVYYCAKEFDIPWDNFDYWGQGTLVTVSS VL: QSVLTQPTSVSAALGQRVTISCTGSNANIGSVYDVQWYQQLPGKSPKTIIYGNTHRPSGVPVRFSGSKSGSTATLTITGIQAEDEADYYCQSYDATLHYVFGSGTQLTVLG | 30 | 0.622 | 0.000809 | 1.3e+06 |  |  | 

Results, then the binder that gave them:

Row | IL-4 IC50 (nM); inhibition of canine IL-4 mediated STAT6 phosphorylation in DH82 cells [1] [nM] | Kd [2] [nM] | koff [2] [s⁻¹] | kon [2] [M⁻¹ s⁻¹] | Kd [3] [nM] | koff [3] [s⁻¹] | kon [3] [M⁻¹ s⁻¹] | Binder
10 |  |  |  |  | 158 | 0.0158 | 104000 | IL13 P3-1 G5 scFv (scFv, scFv purified from E. coli periplasm on Ni-NTA) scFv: SYELTQPPSVSVSLGQTATISCSGESLSKYYAQWFQQKAGQAPVLVIYQDTERPSGIPDRFSGSSSGNTHTLTISGARAEDEADYYCESAISPDTYVFGSGTQLTILGGGSSRSSSSGGGGSGGGGEVQLVQSGGDLVKPGGTLRLSCVASGFTFSSYDMSWVRQSPGKGLQWVAAIWNDGSNTEYADAVKGRFTVSRDNAKNTVYLEMNSLRAEDTAMYYCVKEGPSYGYFDYWGQGTLVTVSSASTTAPSVTSGQAGQ
11 |  |  |  |  | 45.2 | 0.0107 | 304000 | IL 13 P3-1C6 scFv (scFv, scFv purified from E. coli periplasm on Ni-NTA; also called IL13 1C6) scFv: QSVLTQPASVSGSLGQRVTISCSGRTNNIGYFGANWYQQVPGKAPKLLVSSYGNRPSGVPDRFSASNSANSATLTITGLQAEDEADYYCQSFDTTLGAVVFGGGTQLTVLGGGSSRSSSSGGGGSGGGGELTLQESGPGLVKPSQTLSLTCVVSGGSVTNTYEWDWIRQRPGRGLEWMGSWTDNTWYNPAFQGRISITADTAKNQLSLQLSSVTTGDTAVYFCARWTKRWGYDYWGQGTLVTVSSASTTAPSVTSGQAGQ
12 | 0.58 | 0.305 | 0.000114 | 374000 |  |  |  | IL4-P4A-1F10VH-cIgGB/IL4-P4A-1F10VL-cCL (antibody, V domains shown, Full-length canine IgG-B; also called IL4-1F10; IL4 1F10) VH: EVQLVQSGGDLVKPAGSLRLSCVASGFTFNSYAMSWVRQAPGKGLQWVAGINSGGSTTTYADAVKGRFTISRDNAKNTLYLQMNSLRAEDTAVYYCAKDQNSYYPSDTFEYWGQGTLVTVSS VL: QTVVTQEPSLSVSPGGTVTLTCGLSSGSVSTGNYPGWYQQTQGRAPRSIIYDTNSRPSGVPDRFSGSISGNKAVLTITGAQPEDEADYYCSLYTGIAYTDVVFGGGTHLTVLG
13 |  |  |  |  | 13.1 | 0.00224 | 320000 | IL13 P3-1 B4 scFv (scFv, scFv purified from E. coli periplasm on Ni-NTA) scFv: SYVLTQSPSVSGSLGQTVTISCSGTTIGVVGANWYQQLPGKAPKLLVHSDGGRLSGVPDRFSGSESGNSAALTITGLQAEDEADYYCQSFDTTLGYVFGSGTQLTILGGGSSRSSSSGGGGSGGGGELTLQESGPGLVKPSQTLSLTCVVSGGSVTSNYYWNWIRQRPGRGLEWMGYWTGSTNYNPAFQGRISITADTAKNHFSLQLTSMTTEDTAVYYCARASTWLHGMDFWGHGTSLFVSSESPSPPNLTSGQAGQ
14 |  |  |  |  | 77.4 | 0.00192 | 29600 | IL13 P3-1 C2 scFv (scFv, scFv purified from E. coli periplasm on Ni-NTA) scFv: QAVLNQPASVSGSLGQRVTISCSGSSSNIGRGFVGWYQQLPGTRPKTLIYGDTFRPSGVPDRFFGSRSGSTATLTISGLQAEDEADYYCSTWDDSLAALLFGGGTHLTVLGGGSSRSSFSGGGGSGGGGEVQLVESGGDLVKPGGSLRLSCAASGFTFTDYDMSWVRQAPGKGLQWVATTSNGGSGTYYSDAVKGRFTISRDNAKNTLYLEMNRLRAEDTAVYYCVKEIYPASIDFWGLGTLVTVSSASTTAPSVTSGQAGQ
